According to PMC2819989:

Target: RhiG-C-His (Bacillus subtilis ATCC6633)
Test: SEC

stoichiometry N: 2
Substance: RhiG-C-His (enzyme)
